Biological target: human TrkA on the surface of TF-1 cells (human), P04629
Test: cell-based or functional assay

Sequence of human TrkA on the surface of TF-1 cells (human), P04629 (P04629 33-796): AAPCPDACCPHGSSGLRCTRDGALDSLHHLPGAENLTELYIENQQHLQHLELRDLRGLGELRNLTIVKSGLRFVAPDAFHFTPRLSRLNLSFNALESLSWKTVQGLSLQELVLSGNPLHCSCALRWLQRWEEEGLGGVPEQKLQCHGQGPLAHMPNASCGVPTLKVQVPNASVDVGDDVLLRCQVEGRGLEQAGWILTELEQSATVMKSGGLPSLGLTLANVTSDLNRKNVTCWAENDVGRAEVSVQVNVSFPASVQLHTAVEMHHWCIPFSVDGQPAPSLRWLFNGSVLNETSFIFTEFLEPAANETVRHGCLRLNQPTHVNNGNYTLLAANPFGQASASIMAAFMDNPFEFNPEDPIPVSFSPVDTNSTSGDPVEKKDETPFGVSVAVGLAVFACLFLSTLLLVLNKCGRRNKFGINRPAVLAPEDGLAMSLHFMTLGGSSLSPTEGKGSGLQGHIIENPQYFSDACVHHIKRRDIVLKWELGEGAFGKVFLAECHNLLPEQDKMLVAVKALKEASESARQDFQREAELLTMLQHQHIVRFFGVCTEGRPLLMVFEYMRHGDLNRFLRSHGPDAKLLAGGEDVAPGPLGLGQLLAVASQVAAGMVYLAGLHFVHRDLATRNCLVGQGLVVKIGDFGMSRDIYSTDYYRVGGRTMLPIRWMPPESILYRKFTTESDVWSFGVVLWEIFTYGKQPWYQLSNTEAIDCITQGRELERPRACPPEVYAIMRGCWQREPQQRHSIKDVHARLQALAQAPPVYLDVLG

B1: MNAC13 mouse antibody (antibody, mouse IgG1, kappa)
heavy: EVKLVESGGGLVQPGGSLKLSCAASGFTFSTYTMSWARQTPEKRLEWVAYISKGGGSTYYPDTVKGRFTISRDNAKNTLYLQMSSLKSEDTALYYCARGAMYGNDFFYPMDYWGQGTSVTVSSKTTPPSVYPLAPGSAAQTNSMVTLGCLVKGYFPEPVTVTWNSGSLSSGVHTFPAVLESDLYTLSSSVTVPSSPRPSETVTCNVAHPASSTKVDKKIVPRDCGCKPCICTVPEVSSVFIFPPKPKDVLTITLTPKVTCVVVDISKDDPEVQFSWFVDDVEVHTAQTQPREEQFNSTFRSVSELPIMHQDWLNGKEFKCRVNSAAFPAPIEKTISKTKGRPKAPQVYTIPPPKEQMAKDKVSLTCMITDFFPEDITVEWQWNGQPAENYKNTQPIMNTNGSYFVYSKLNVQKSNWEAGNTFTCSVLHEGLHNHHTEKSLSHSPGK
light: QIVLTQSPAIMSASLGEEITLTCSASSSVSYMHWYQQKSGTSPKLLIYTTSNLASGVPSRFSGSGSGTFYSLTISSVEAEDAADYYCHQWSSYPWTFGGGTKLEIKADAAPTVSIFPPSSEQLTSGGASVVCFLNNFYPKDINVKWKIDGSERQNGVLNSWTDQDSKDSTYSMSSTLTLTKDEYERHNSYTCEATHKTSTSPIVKSFNRNEC
TF-1 cell proliferation assay IC50 (beta-NGF induced proliferation): 0.23 µg/mL

Source: patent US20170362327A1
